Measured values as given in article PMC10933337, “RhoGDI phosphorylation by PKC promotes its interaction with death receptor p75^NTR to gate axon growth and neuron survival” (EMBO Reports, 2024).

Tests used:
p75NTR [1] = target: p75NTR (UniProt Q9Z0W1); test: p75NTR IP, Flag-RhoGDI immunoblot; conditions: reference: wild type RhoGDI; sites S34
p75NTR [2] = target: p75NTR (UniProt Q9Z0W1); test: p75NTR IP, Flag immunoblot; conditions: reference: RhoGDI-59 wild type, PMA; sites S34
[3] = target: T1, human p75^NTR JXT domain (K273-D332) (human, UniProt P08138 273-332); test: NMR titration; unlabeled p75NTR JXT titrated to 15N-labeled RhoGDI NTD S34D, [1H-15N] HSQC, 28 °C, 10 mM PIPES pH 6.8; 0.3 mM RhoGDI NTD and 1.5 mM p75NTR JXT; conditions: both partners purified
T1 construct: juxtamembrane domain of human p75NTR, K273-D332, ~6.6 kDa; Cloned in a pET-32a-derived vector; unlabeled or 15N,13C-labeled for NMR; source: E. coli BL21 (DE3), purified (Ni-NTA, TEV cleavage, gel filtration, MonoS ion exchange)
T1 sequence (looked up): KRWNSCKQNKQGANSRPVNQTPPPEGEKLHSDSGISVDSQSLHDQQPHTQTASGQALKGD

## RhoGDI (from UniProt Q99PT1) S34A
p75NTR [1]
  binding against the reference: weaker

## RhoGDI RhoGDI-59, 59 N-terminal residues (fused to GST) (from UniProt Q99PT1) RhoGDI-59 S34A, PMA
p75NTR [2]
  binding against the reference: lost

B1: human RhoGDI NTD^S34D (A2-A60) (domain or fragment, UniProt P52565 2-60, looked up)
chain: AEQEPTAEQLAQIAAENEEDEHSVNYKPPAQKDIQEIQELDKDDESLRKYKEALLGRVA
notes: N-terminal domain of RhoGDI, A2-A60, ~6.8 kDa, with the phosphorylation-mimetic mutation S34D; Cloned in a pET-32a-derived vector; 15N- or 15N,13C-labeled or unlabeled for NMR; source: E. coli BL21 (DE3), purified (Ni-NTA, TEV cleavage, gel filtration, MonoQ ion exchange)
[3]
  binding result: binds
